# According to paper PMC6247239 (Protein Science : A Publication of the Protein Society, 2018):
# T1: FtsA (Escherichia coli, UniProt P0ABH0 1-420)
# T1 sequence: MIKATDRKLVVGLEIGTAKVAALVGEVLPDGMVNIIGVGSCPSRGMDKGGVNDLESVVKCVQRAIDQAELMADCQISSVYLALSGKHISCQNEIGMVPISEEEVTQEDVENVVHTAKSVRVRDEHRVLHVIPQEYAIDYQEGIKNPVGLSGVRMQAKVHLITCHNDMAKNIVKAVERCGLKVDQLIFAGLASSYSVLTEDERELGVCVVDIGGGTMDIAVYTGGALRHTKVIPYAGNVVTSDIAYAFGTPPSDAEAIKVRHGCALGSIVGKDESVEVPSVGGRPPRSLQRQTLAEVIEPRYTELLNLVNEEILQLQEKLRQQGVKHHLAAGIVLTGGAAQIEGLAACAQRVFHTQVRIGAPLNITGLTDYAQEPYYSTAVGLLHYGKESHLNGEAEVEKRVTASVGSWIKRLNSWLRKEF
# B1: MinC (natural protein)
# chain: MSNTPIELKGSSFTLSVVHLHEAEPKVIHQALEDKIAQAPAFLKHAPVVLNVSALEDPVNWSAMHKAVSATGLRVIGVSGCKDAQLKAEIEKMGLPILTEGKEKAPRPAPTPQAPAQNTTPVTKTRLIDTPVRSGQRIYAPQCDLIVTSHVSAGAELIADGNIHVYGMMRGRALAGASGDRETQIFCTNLMAELVSIAGEYWLSDQIPAEFYGKAARLQLVENALTVQPLN
# B2: human glutathione transferase M1a-1a (enzyme)
# chain: MPMILGYWDIRGLAHAIRLLLEYTDSSYEEKKYTMGDAPDYDRSQWLNEKFKLGLDFPNLPYLIDGAHKITQSNAILCYIARKHNLCGETEEEKIRVDILENQTMDNHMQLGMICYNPEFEKLKPKYLEELPEKLKLYSEFLGKRPWFAGNKITFVDFLVYDVLDLHRIFEPKCLDAFPNLKDFISRFEGLEKISAYMKSSRFLPRPVFSKMAVWGNK
# B3: SNX16 PX-CC unit (domain or fragment)
# chain: DRPSTPTILGYEVMEERAKFTVYKILVKKTPEESWVVFRRYTDFSRLNDKLKEMFPGFRLALPPKRWFKDNYNADFLEDRQLGLQAFLQNLVAHKDIANCLAVREFLCLDDPPGPFDSLEESRAFCETLEETNYRLQKELLEKQKEMESLKKLLSEKQLHIDTLENRIRTLSLEPEESLDVSETEGEQILKVESSALEVDQDVLDEESRADNKPCLSFSEPENAVSEIEVAEVAYDAEED
# B4: FtsZ (natural protein)
# chain: MFEPMELTNDAVIKVIGVGGGGGNAVEHMVRERIEGVEFFAVNTDAQALRKTAVGQTIQIGSGITKGLGAGANPEVGRNAADEDRDALRAALEGADMVFIAAGMGGGTGTGAAPVVAEVAKDLGILTVAVVTKPFNFEGKKRMAFAEQGITELSKHVDSLITIPNDKLLKVLGRGISLLDAFGAANDVLKGAVQGIAELITRPGLMNVDFADVRTVMSEMGYAMMGSGVASGEDRAEEAAEMAISSPLLEDIDLSGARGVLVNITAGFDLRLDEFETVGNTIRAFASDNATVVIGTSLDPDMNDELRVTVVATGIGMDKRPEITLVTNKQVQQPVMDRYQQHGMAPLTQEQKPVAKVVNDNAPQTAKEPDYLDIPAFLRKQAD
# Columns and labels:
# [1] = target: procaspase-2 phosphorylated at S139 and S164 (human) (UniProt P42575); experiment: fluorescence polarisation + native gel or EMSA + SEC + AUC
# [2] = target: BECN1 coiled-coil domain (Homo sapiens) (UniProt Q14457); details: cited from earlier work
# [3] = target: PBP2a (Staphylococcus aureus (MRSA))
# [4] = target: Beclin-1 lacking the BARA domain (human)
# Ras = Ras (UniProt P01112)
# [5] = target: radical-generating subunit of the class I ribonucleotide reductase of Leeuwenhoekiella blandensis (Leeuwenhoekiella blandensis); experiment: multi-detection SEC, GEMMA, DLS
# FtsZ = target: B4; experiment: co-sedimentation
# [6] = target: the molecule itself; experiment: SEC + other: dynamic light scattering, HDX-MS, spectroscopy
# crystal structure = target: the molecule itself; experiment: crystal structure
# FtsA = target: T1, FtsA; experiment: co-sedimentation
# procaspase-2 phosphorylated at S139 and S164 (human), sequence (P42575 whole entry, the tested form may be a part): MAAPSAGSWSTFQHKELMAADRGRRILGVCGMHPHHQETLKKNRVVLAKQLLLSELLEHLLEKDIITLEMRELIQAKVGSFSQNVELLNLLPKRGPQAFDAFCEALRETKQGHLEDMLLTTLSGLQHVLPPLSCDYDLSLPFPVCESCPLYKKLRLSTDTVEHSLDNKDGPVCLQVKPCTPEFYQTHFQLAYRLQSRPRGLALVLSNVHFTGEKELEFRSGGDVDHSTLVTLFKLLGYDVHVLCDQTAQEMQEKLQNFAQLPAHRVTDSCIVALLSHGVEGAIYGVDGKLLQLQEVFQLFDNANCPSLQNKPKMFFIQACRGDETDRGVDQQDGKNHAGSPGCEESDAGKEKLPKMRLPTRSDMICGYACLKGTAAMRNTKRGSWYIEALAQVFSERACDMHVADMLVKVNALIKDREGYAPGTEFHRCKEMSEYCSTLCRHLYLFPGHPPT
molecule,measurement,setting,value
14-3-3 protein (from UniProt P63104 1-245) (natural protein),stoichiometry N,[1],1
BECN1 coiled-coil domain (from UniProt Q14457),Kd,[2],48 µM
BLIP-II N50A:Y113H (natural protein),Kd,[3],0.05 µM
Beclin-1 lacking the BARA domain (domain or fragment),fold weaker homodimer KD than the full-length protein,[4],3.5 fold
Ras (from UniProt P01112 1-189) (natural protein),percent of the Ras population forming dimers,Ras,< 10%
radical-generating subunit of the class I ribonucleotide reductase of Leeuwenhoekiella blandensis (enzyme),stoichiometry N,[5],4
B1,binding result,FtsZ,binds
B2,stoichiometry N,[6],2
B3,stoichiometry N,crystal structure,2
B4,binding result,FtsA,binds
